According to the supplement of paper PMC10567573:

B1: C1orf137 (parent)
chain: RQHHHQSSFPGSLPQETNLTLKVC
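Further: lentivirally expressed fusions sorted by FACS into six bins by GFP to DsRed ratio, PSI derived from sequencing read proportions per bin multiplied by bin number.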

Variants of: B1
Experiment: protein stability index of a GFP-peptide fusion (GPS, HEK-293T) (PSI 1-6); higher = more stable
Settings: c terminus: a fixed tail appended
RYHHHQSSFPGSLPQETNLTLKVC [Q2Y] gave a protein stability index of 2.63.
RGHHHQSSFPGSLPQETNLTLKVC [Q2G] showed a protein stability index of 3.57.
Variant RRHHHQSSFPGSLPQETNLTLKVC [Q2R] has a protein stability index of 3.04.
RMHHHQSSFPGSLPQETNLTLKVC [Q2M] showed a protein stability index of 2.88.
RKHHHQSSFPGSLPQETNLTLKVC [Q2K] gave a protein stability index of 2.31.
REHHHQSSFPGSLPQETNLTLKVC [Q2E] gave a protein stability index of 2.59.
With RSHHHQSSFPGSLPQETNLTLKVC [Q2S] the protein stability index was 2.43.
With RTHHHQSSFPGSLPQETNLTLKVC [Q2T] the protein stability index was 3.45.
With RFHHHQSSFPGSLPQETNLTLKVC [Q2F] the protein stability index was 3.96.
RQHHHQSSFIGSLPQETNLTLKVC [P10I] gave a protein stability index of 2.56.
In the case of RQHHHQSSFAGSLPQETNLTLKVC [P10A], the protein stability index is reported as 3.24.
Work on RQHHHQSSFCGSLPQETNLTLKVC [P10C] yielded a protein stability index of 2.38.
In the case of RQHHHQSSFVGSLPQETNLTLKVC [P10V], the protein stability index is reported as 2.65.
Work on RQHHHQSSFKGSLPQETNLTLKVC [P10K] yielded a protein stability index of 3.44.
For RQHHHQSSFSGSLPQETNLTLKVC [P10S], the protein stability index was 3.46.
With RQHHHQSSFDGSLPQETNLTLKVC [P10D] the protein stability index was 2.99.
With RQHHHQSSFPGSLPQETWLTLKVC [N18W] the protein stability index was 1.06.
In the case of RQHHHQSSFPGSLPQETGLTLKVC [N18G], the protein stability index is reported as 3.65.
Work on RQHHHQSSFPGSLPQETHLTLKVC [N18H] yielded a protein stability index of 1.84.
With RQHHHQSSFPGSLPQETDLTLKVC [N18D] the protein stability index was 3.83.
RQHHHQSSFPGSLPQETALTLKVC [N18A] showed a protein stability index of 2.76.
RQHHHQSSFPGSLPQETCLTLKVC [N18C] showed a protein stability index of 1.96.
In the case of RQHHHQSSFPGSLPQETVLTLKVC [N18V], the protein stability index is reported as 2.46.
RQHHHQSSFPGSLPQETQLTLKVC [N18Q] gave a protein stability index of 3.66.
Variant RQHHHQSSFPGSLPQETRLTLKVC [N18R] has a protein stability index of 2.29.
Work on RQHHHQSSFPGSLPQETILTLKVC [N18I] yielded a protein stability index of 2.
Work on RQHHHQSSFPGSLPQETKLTLKVC [N18K] yielded a protein stability index of 2.89.
For RQHHHQSGFPGSLPQETNLTLKVC [S8G], the protein stability index was 2.47.
RQHHHQSYFPGSLPQETNLTLKVC [S8Y] showed a protein stability index of 2.02.
In the case of RQHHHQSRFPGSLPQETNLTLKVC [S8R], the protein stability index is reported as 2.57.
RQHHHQSMFPGSLPQETNLTLKVC [S8M] showed a protein stability index of 2.68.
With RQHHHQSNFPGSLPQETNLTLKVC [S8N] the protein stability index was 3.08.
Variant RQHHHQSAFPGSLPQETNLTLKVC [S8A] has a protein stability index of 2.81.
RQHHHQSIFPGSLPQETNLTLKVC [S8I] gave a protein stability index of 3.03.
Variant RQHHHQSDFPGSLPQETNLTLKVC [S8D] has a protein stability index of 2.89.
Variant RQHHHQSSFPGSLPQETNLTQKVC [L21Q] has a protein stability index of 3.95.
Work on RQHHHQSSFPGSLPQETNLTFKVC [L21F] yielded a protein stability index of 2.88.
With RQHHHQSSFPGSLPQETNLTTKVC [L21T] the protein stability index was 4.54.
Work on RQHHHQSSFPGSLPQETNLTRKVC [L21R] yielded a protein stability index of 3.95.
Work on RQHHHQSSFPGSLPQETNLTWKVC [L21W] yielded a protein stability index of 3.08.
With RQHHHQSSFPGSLPQETNLTYKVC [L21Y] the protein stability index was 3.96.
Variant RQHHHQSSFPGSLPQETNLTMKVC [L21M] has a protein stability index of 3.79.
Work on RQHHHQSSFPGSGPQETNLTLKVC [L13G] yielded a protein stability index of 2.98.
In the case of RQHHHQSSFPGSQPQETNLTLKVC [L13Q], the protein stability index is reported as 2.89.
In the case of RQHHHQSSFPGSCPQETNLTLKVC [L13C], the protein stability index is reported as 2.79.
With RQHHHQSSFPGSDPQETNLTLKVC [L13D] the protein stability index was 4.
With RQHHHQSSFPGSTPQETNLTLKVC [L13T] the protein stability index was 3.51.
For RQHHHQSSFPGSFPQETNLTLKVC [L13F], the protein stability index was 2.78.
Variant RQHHHQSSFPGSYPQETNLTLKVC [L13Y] has a protein stability index of 2.66.
In the case of RQHHHQSSFPGSRPQETNLTLKVC [L13R], the protein stability index is reported as 2.97.
Work on RQHHHQSSFPGSAPQETNLTLKVC [L13A] yielded a protein stability index of 2.72.
With RQHHHQSSFPGSHPQETNLTLKVC [L13H] the protein stability index was 3.21.
RQHHHQSSFPGSSPQETNLTLKVC [L13S] gave a protein stability index of 3.57.
Work on RQHHHQSSFPGSMPQETNLTLKVC [L13M] yielded a protein stability index of 3.29.
RQHHHQSSFPGSLPQETNLTLKHC [V23H] gave a protein stability index of 4.2.
With RQHHHQSSFPGSLPQETNLTLKPC [V23P] the protein stability index was 3.79.
In the case of RQHHHQSSFPGSLPQETNLTLKKC [V23K], the protein stability index is reported as 2.97.
RQHHHQSSFPGSLPQETNLTLKNC [V23N] showed a protein stability index of 3.34.
With RQHHHQSSFPGSLPQETNLTLKGC [V23G] the protein stability index was 4.43.
RQHHHQSSFPGSLPQESNLTLKVC [T17S] showed a protein stability index of 3.02.
Variant RQHHHQSSFPGSLPQEQNLTLKVC [T17Q] has a protein stability index of 3.24.
Work on RQHHHQSSFPGSLPQEMNLTLKVC [T17M] yielded a protein stability index of 2.44.
RQHHHQSSFPGSLPQEGNLTLKVC [T17G] gave a protein stability index of 3.28.
RQHHHQSSFPGSLPQEWNLTLKVC [T17W] gave a protein stability index of 1.41.
Work on RQHHHQSSFPGSLPQEPNLTLKVC [T17P] yielded a protein stability index of 2.98.
Variant RQHHHQSSFPGSLPQEHNLTLKVC [T17H] has a protein stability index of 2.39.
For RQHHHQSSFPGSLPQEINLTLKVC [T17I], the protein stability index was 1.17.
For RQHHHQSSFPGSLPQEDNLTLKVC [T17D], the protein stability index was 3.89.
RQHHHQSSFPGSLPQEANLTLKVC [T17A] showed a protein stability index of 2.87.
With RQRHHQSSFPGSLPQETNLTLKVC [H3R] the protein stability index was 2.88.
In the case of RQNHHQSSFPGSLPQETNLTLKVC [H3N], the protein stability index is reported as 2.75.
RQYHHQSSFPGSLPQETNLTLKVC [H3Y] showed a protein stability index of 2.57.
For RQPHHQSSFPGSLPQETNLTLKVC [H3P], the protein stability index was 2.77.
With RQQHHQSSFPGSLPQETNLTLKVC [H3Q] the protein stability index was 3.06.
Work on RQKHHQSSFPGSLPQETNLTLKVC [H3K] yielded a protein stability index of 3.31.
Variant RQSHHQSSFPGSLPQETNLTLKVC [H3S] has a protein stability index of 3.36.
Variant RQMHHQSSFPGSLPQETNLTLKVC [H3M] has a protein stability index of 3.25.
Work on RQDHHQSSFPGSLPQETNLTLKVC [H3D] yielded a protein stability index of 2.87.
Work on RQVHHQSSFPGSLPQETNLTLKVC [H3V] yielded a protein stability index of 3.09.
Variant DQHHHQSSFPGSLPQETNLTLKVC [R1D] has a protein stability index of 3.79.
Work on GQHHHQSSFPGSLPQETNLTLKVC [R1G] yielded a protein stability index of 3.69.
In the case of CQHHHQSSFPGSLPQETNLTLKVC [R1C], the protein stability index is reported as 1.97.
With TQHHHQSSFPGSLPQETNLTLKVC [R1T] the protein stability index was 3.12.
Work on YQHHHQSSFPGSLPQETNLTLKVC [R1Y] yielded a protein stability index of 2.07.
In the case of WQHHHQSSFPGSLPQETNLTLKVC [R1W], the protein stability index is reported as 3.5.
Variant EQHHHQSSFPGSLPQETNLTLKVC [R1E] has a protein stability index of 3.58.
Work on IQHHHQSSFPGSLPQETNLTLKVC [R1I] yielded a protein stability index of 3.28.
RQHYHQSSFPGSLPQETNLTLKVC [H4Y] gave a protein stability index of 2.89.
For RQHEHQSSFPGSLPQETNLTLKVC [H4E], the protein stability index was 3.15.
For RQHAHQSSFPGSLPQETNLTLKVC [H4A], the protein stability index was 2.94.
Variant RQHWHQSSFPGSLPQETNLTLKVC [H4W] has a protein stability index of 2.87.
RQHHHQSSFPGSLPQETNLTLAVC [K22A] gave a protein stability index of 2.57.
RQHHHQSSFPGSLPQETNLTLHVC [K22H] showed a protein stability index of 2.75.
With RQHHHQSSFPGSLPQETNLTLFVC [K22F] the protein stability index was 2.14.
